Assay results as given in PMC3099347 (Journal of molecular biology, 2011).

B1: Methanococcus jannaschii FKBP26, construct 231 (full-length, residues 1-231) (natural protein, UniProt Q58235 1-231, looked up)
chain: MVEKGKMVKISYDGYVDGKLFDTTNEELAKKEGIYNPAMIYGPVAIFAGEGQVLPGLDEAILEMDVGEEREVVLPPEKAFGKRDPSKIKLIPLSEFTKRGIKPIKGLTITIDGIPGKIVSINSGRVLVDFNHELAGKEVKYRIKIEEVVDDKKNIVKEIVKMYVPRLSDVKVTIRNGTVKIELPEFAPFIPNIQTAKMAIANEILKRLEDAEKVSFVETFERKKETKEENK
B2: Methanococcus jannaschii FKBP26 fragment 231-ΔIF (1-231Δ83-G-A-G-134) (domain or fragment)
chain: MVEKGKMVKISYDGYVDGKLFDTTNEELAKKEGIYNPAMIYGPVAIFAGEGQVLPGLDEAILEMDVGEEREVVLPPEKAFGKRGAGLAGKEVKYRIKIEEVVDDKKNIVKEIVKMYVPRLSDVKVTIRNGTVKIELPEFAPFIPNIQTAKMAIANEILKRLEDAEKVSFVETFERKKETKEENK

Molecular target: the molecule itself
Assay: SEC

Protein	stoichiometry N
B1	2
B2	2
